Measurements: article PMC11909895

How the values were obtained:
[1] = target: beta-Nrxn1ΔC, C-terminal truncated mutant beta-Nrxn1 (-AS4); test: co-IP; HA antibody (clone 3F10) and Protein-G Sepharose from striatum lysates of adult control and beta-Nrxn1ΔC mice; lysis buffer 20 mM Tris-HCl pH 7.5, 100 mM NaCl, 5 mM MgCl2, 5 mM CaCl2, 1% Triton X-100; blots for Nlgn1, Nlgn2, Nlgn3, LRRTM2
[2] = target: beta-Nrxn1ΔC, C-terminal truncated mutant beta-Nrxn1 (-AS4); test: co-IP; HA antibody (clone 3F10) and Protein-G Sepharose from cortex lysates of adult control and beta-Nrxn1ΔC mice (untreated, or DOX 14 days then 30 days re-expression); lysis buffer 20 mM Tris-HCl pH 7.5, 100 mM NaCl, 5 mM MgCl2, 5 mM CaCl2, 1% Triton X-100; blots for Nlgn1, Nlgn2, Nlgn3, LRRTM2

- Nlgn1 levels in the co-immunoprecipitates as percentage of total Nlgn1 in the initial lysates [1]: 1.74%
- Nlgn1 levels in the co-immunoprecipitates as percentage of total Nlgn1 in the initial lysates [2]: 5.01%
Substance: Nlgn1 (neuroligin-1) (from UniProt Q99K10 46-843) (natural protein)
